Results taken from paper PMC7241686.

Molecular target: HA trimer from A/New Caledonia/20/1999 (H1N1), soluble trimerized HA ectodomain (Influenza A virus A/New Caledonia/20/1999 (H1N1))
Experiment: SEC

HA trimer from A/New Caledonia/20/1999 (H1N1), soluble trimerized HA ectodomain (domain or fragment)
stoichiometry N: 3
